Experiment: soluble on expression in E. coli; label from the status in PepcDB or PDB records

Row | Sequence | soluble on expression in E. coli
1 | MATTKPYRVLLYYMYTTIENPEEFAAEHLEFCNSLELKGRILVAKEGINGTCSGTVEQTEKYMEAMNNDPRFDGIVFKIDEADGHAFKKMHVRPRPELVTLRLEDDINPHEITGKYLEPKDFYEAMKQEDTVIIDARNDYEFDLGHFKGAIKPDIESFRELPDWIRENKEVLEGKKILTYCTGGIRCEKFSGWLVREGYEDVSQLHGGIVTYGKDPEVQGELWDGQCYVFDERIAVPVNQKEHVIVGKDHFTGEPCERYVNCSNPECNKKILCSEENEAKYLRACSHECRVSPRNRYVIQHELTEEQVAAALEQIEAGKLEHHHHHH | soluble
2 | MKISIICPLYNAENYIMSLHNKILEQEKPEGTEVEVSYVLTRCKDKTEEMLKNMNLQYTLIEPKDFSHSKTREMMAFKSTGDIIVFISQDVMMKNNFWLKNLVQPIIDGECEASFSRQLCTNNTIEKYIREKNYPEESRVVSKKDINKYGLLTFFYSDASSAVKTSVYKELNGYDNKRLLINEDMYFAEKLIQAGYRIKYCSDSEVYHSHVFTLKSLYERYFDTGVFFRQNSQFLNYKGNKSGKDLAIHVLKRSLEDKNFKVTLNILPNFGARFIGSFLGKKYESLPRSFVMASSMSKKVYSQILEHHHHHH | soluble
3 | RNRQQRPGTIKHGSALDVLLSMGFPRARAQKALASTGGRSVQTACDWLFSH | soluble
4 | MDMELTYIYHSGFALSGDGFTVIMDYYRDSEDGQAQADLNRLMDGTFSNQEAGMPEGTVHSELLRRPGKLYVLASHFHPDHFNKEVLQWREQRPDIIYIFSKDILRHRRAQKEDAVWLKKGEEYKDETLSVRAFGSTDVGVSFLLQTGGKKIFHAGDLNNWHWMDESTEAEWKGAEKNFLHELDDLYAYTPEVDVAMFPVDPRLGKEYMRGAGQFVTKIKTHIFVPMHFTPEYAKANAFRDFAEAHGVRFVSLTHRGQKIEIE | soluble
5 | MSSGKRRNPLGLSLPPTVNEQSESGEATAEEATATVPLEEQLKKLGLTEPQTQRLSEFLQVKEGIKELSEDMLQTEGELGHGNGGVVNKCVHRKTGVIMARKLVHLEIKPSVRQQIVKELAVLHKCNSPFIVGFYGAFVDNNDISICMEYMDGLSLDIVLKKVGRLPEKFVGRISVAVVRGLTYLKDEIKILHRDVKPSNMLVNSNGEIKLCDFGVSGMLIDSMANSFVGTRSYMAPERLTGSHYTISSDIWSFGLSLVELLIGRYPVPAPSQAEYATMFNVAENEIELADSLEEPNYHPPSNPASMAIFEMLDYIVNGPPPTLPKRFFTDEVIGFVSKCLRKLPSERATLKSLTADVFFTQYADHDDQGEFAVFVKGTINLPKLNP | not soluble
6 | MPPIPSRARVYAEVNPSRPREYWDYEAHMIEWGQIDDYQLVRKLGRGKYSEVFEGFKMSTDEKVVVKILKPVKKKKIKREIKILENLRGGTNIITLLDVVKDPISRTPALIFEHVNNSDFKQLYQTLSDYDIRYYLYELLKALDFCHSQGIMHRDVKPHNVMIDAEKRELRLIDWGLAEFYHPRQDYNVRVASRYFKGPELLVDYQCYDYSLDMWSLGCMLASMIFRKEPFFHGHDNYDQLVRIAKVLGTDELYEYIARYHIDLDPRFNDILGRHSRKRWERFIHAENQHLVTPEALDFLDKLLRYDHAERLTAQEAMGHEYFRPVVEAHARANGTEQADGQGASNSASSQSSDAKIDGA | not soluble
7 | SNATKTIHNARYQALLDLLLEARSAAGITQKELAARLGRPQSFVSKTENAERRLDVIEFMDFCRGIGTDPYALLSKLEAMTPS | soluble
8 | MSLSQANRVFITGRSALTASGATADETWNAIISGQCGIDEINFWELSEWSHRLGGEIKDFQPSKMLPDRKLIKVISRQDIMGINAAVQAVEHSKMIAYRDSLADADLFNEQTAIYVGSPGNKYFQQYDFIPLLAKTHGDMRSFANQLFDEVHPMWLLRILPNNVLAYTGITYGFKGPNHNVTNHAVGGTQAILEAYHAIRSGQAERAVVVAYDIGTEPQGLFYYEKLGVVSNRHLKPFDKEHDGTILAEGAAALVLESEASVKSRAATCYGEIVGGLSASEATGLFSIEADGQHLASLMGQTLSTSGINSEEIGLIVTHGNGNSKSDDSEALAIKSVFKQEEVPATAFKWSMGHTLCASGVLDAVLTTYALETKCVPGIANFQQIAPTCEGLSVSREHREIISNSYAMMINRGFASMNVCLVIKACEEGHHHHHH | not soluble
9 | MSQISIILPTYNVEKYIARALESCINQTFKDIEIIVVDDCGNDKSIDIAKEYASKDDRIKIIHNEENLKLLRARYEGAKVATSPYIMFLDSDDYLELNACEECIKILDMGGGGKIDLLCFEAFITNAKKSIKKLNIKQGKYNNKEFTMQILKTKNPFWTMWAKIIKKDIYLKAFNMLNLKKEIKINMAEDALLYYPLTILSNEIFYLTQPLYTQHVNSNSITNNINSLEANIQEHKIVLNVLKSIKNKKTPLYFLIIYLLKIQLLKYEQNFNKRNINLIYYKINILYQKYQFKWKKFLYNLIP | not soluble
10 | MGSDKIHHHHHHMEERIGLIDIGSNTIRLVIFGYNKKTGLNEILNIKTPARLSQYLTKSNEMNDEGIHVLKETLSSFRKVADKFNVDALYPIATAAIRQSKNREAIIKEIKQDIHIEIQIVPEEDEAFYGYYAITHTTDIENGISVDIGGGSTEVTLFKDKQLKEAHSFPFGVVSLKRQFFGDKAHNDKTAIKNMEQFLREQFSQLDWLSNQHIALVGVGGSARNVARIHQSAHAYPIGGVHNYKMTSKDINNVYDLIRKSSRDELTNLDGLSRDRVDIILPAISVFKTLFKKIDATQFTFSRKGIREGFIMNHISKRYPDEFNKSNVRKDALRHLANEYHIEETSANRRVKLAQSLLNQIISERSLNISAMEKELFIEGSYIYYLGSFIDSDSSSPHTYYLIANSMINGFSHKDRVKLALLASFKNKSLLKFYCKETQWFSNKEIDTIQALGGIIKFANTLNISHTSFVEEVKLKAKKDDKYDLLVYYKGSPIAEEYQANRQKKHIEKILKGKVSIIFTKS | not soluble
11 | MEQVIAQVIKRQQTEERPPDVLSQQTTKYEKRNSASLRKRKNSSKLYLKTDQNWMALREKLASNSIHDKGKYRQKRESNVTCFKSGVESGIQNSSVRSRETQVTFCDGTVPSQGLELANSKSTAEISSRNEIPRLTKVVALDCEFVGVGKLGKEHSLARVSIVNFKGEVLYDKYVLNDKEPVVDYRTSVSGIRPEHLRSSDAVSFEQAQRDVYSIIRNRILVGHAIHHDMHALLLSHPRKLIRDTSKWRGLRSHHLSRKTPSLRKLAQEILGIRIQDGEHDSVEDARATLMIYKRFAKEWEMELQTKKVKLARKKHR | soluble
12 | MAHHHHHHMLTIVDELKAAVMARHEADAPKMKILKEKYKNEKLSDATIDAAYGGMRGITGLIYESSMLDKEQGICFRGMTIPECCEKIPKSWKGGTSPLPEGMLWLLMTGSIPTDKQVKELHVELHRRADNEAITAATKTIASLPENTHPMTQLSTGVLALQAFSKFAPAYASGKAIKSNFWEYALEDSLDIIARTPYLAAAIYNRLTTGRAAVLNPANPDLDWAANFTNMLGYQDEKFWDCMRLYLSLHADHEGGNVSAHATTLVASALSDPYLSFSAGLNGLAGPLHGLANQESLSYLFEMRDKCKAAGVNMKDRKELAAGLEKLTWERLNAKRVIPGYGHAVLRIPDPRYMCLREYCLKHFPDDELFFLVDTIYSIMPDILKKHGKTKNPFPNVDAHSGMLLQHFGLTEQNFYTVLFGISRQLGALTGVVWDRLQGRPIERPKSITSDALFKKFKIE | not soluble
13 | MSLDQAAVCLTICRINQLLSPSLLLKWWKADPSMSLTSPVLQTVTRDQIKAAALKNEIEQFYPKLPRVLAAYREQGINTIPISSKQYPFWLKSIYDPPAVLFAKGDMTLLSKGRKIGIVGTRNPTAYGKQVVNHLTKEICRKGWVIVSGLASGIDGMSHAASIKAKGRTIGVIAGGFQHIYPRENLQLADHMAKHHILLSEHPPETKPQKWHFPMRNRIISGLSEGVIVVQGKEKSGSLITAYQALEQGREVFAVPGSLFDPYAGGPIKLIQQGAKAIWSAEDIFEELPERNVQYTEPFEGHHHHHH | not soluble
14 | MSLIYGFIRDHSNEFAVEKMCQVLNVSRSGYYSWLNRKPGKRELTNKKLKLKIAEIYWQTRGRCGSPRIHKQLKKEGYHYNIKRIERLMRIMGLKAIQKRKFKRTTNSDNNLPLKNNLLKRNFSVTQPDKVWVSDITYIPTKEGWLYLSVVIDLYSRKVVGWSMDNHMTKRLVIDALEMAVLNRNPSRGLIFHSDRGSQYASHDFQKTLWKYGIISSMSRKGDCWDNAVAESFFATLKTELIFHNKYQSRAQAKRDIFEYIEIFYNRIRLHSSLDYKSPEDYEKERKTSKEGHHHHHH | not soluble
15 | MGSDKIHHHHHHMLPSAPCSGWSHHTLKPLGAGTRGTGYIMPVTNMIHLDNRDHADRQSHGQPAHVLMLEQSPGVVPKSLLGKGLTYLREQWPKLIRYVENGSWPISNNPCENAIRLFCVGRRGWLFSDTVDGANACANLYTLVETSKTNGIDLYRYLAWLFRRLPLAKTVDDYDALLPWRMPVDIHVDPFDKERSTIDHEQENHSAGSLSA | not soluble
16 | MSLDASDDSLIGRITEVRAGRFAARLLSDEEGFRNEVSLGDEVQHPGQVGTYVSIRNGTFRILALVREVSGGAAGSAAGSAMQLVPLGEFNDKGAFSRGVRRYPVPGAEVHAASPQEINAVFARTRNLRFNPGYLPNHPATGVYLDPSALCSRHFAILGQSGAGKSWTVASLLQRMLASAPRAHIILLDLHGEYCWRGADGVLHSTFPPMATRAMDARELEIPYWLMSFAELVDLLIERDDPAASIQTAFLRETVFELKRRSARELGLEGVSIDAPVYFSLQEVYERFKEANEHRTDFGKTKGPLFGQFDDFLLKLGSRLHDVRYDFLLNPARRTRSESLPDLLRDFVGLGEPRCQISVIDLSPVPFDVRPTVSAQIGRLAFEFNYWNLDRREFPILLVCEEAHTYIPRERATQYEGTRKSMERIAKEGRKYGVGLAVVSQRPHELSETVLSQCGSYICLRISNPDDQAYVRKLVPEGEADLVDVLTALGRGEALILGEATPLPVRCQIFRPDEGHHHHHH | not soluble
17 | MISFNNVSKVYESGGQSVHAVEDVTLSVEKGEIFGIIGFSGAGKSTLLRLVNMLERPTAGTISIDDKDITSLSTKELRKLRQRIGMIFQSFNLFNSRTVFGNIAYPLKLAKVPKNEIKERVNELLKFVGLEDKANNYPEQLSGGQKQRVGIARALATSPDILICDEATSALDPETTTEILNLLKKVNREYNLTILLITHEMHVVKEICHRVAVMEKGKVIEEGKLFDVFTQPKTTTTQNFVRSVINDHLPESVLAKIQNGGQIYRLTFTGEETGQPVLSYIAKNYNVDVNVLYGNIIELQNVLFGNLLVELQGEQREIQKALQHLRLQVQLKEVEAHAS | not soluble
18 | GSHMTEAEYLANYDPKAFKAQLLTVDAVLFTYHDQQLKVLLVQRSNHPFLGLWGLPGGFIDETCDESLEQTVLRKLAEKTAVVPPYIEQLCTVGNNSRDARGWSVTVCYTALMSYQACQIQIASVSDVKWWPLADVLQMPLAFDHLQLIEQARERLTQKALYSLVPGFALSEPFTLPELQHVHEVLLGKPIQGKSFRRRVEQADLLIDTGLKRTERGRPANLYCLKPDTASYRFLRNLEC | soluble
19 | MRKYEQKQLRNHDILTQHYEEVYRQLPEFKSLDDSISILSVQYGKRLLNGDQKAISSLKEELAILRASKQELLRSSGFPADYLEPVYDCPNCKDTGYIGNQKCHCFKKAIIDLLYEQSNLKEILKKENFSNFALDYYSTNFIDPKTGRSSRQVIEDALRICRNFVTSFGTDFQNLFLYGDVGVGKTFLSNCIAKELMDKEYSVLYFSASKFFSSLAKHAFDKQDVDAQNMFELIYNCDCLIIDDLGTEYTNNFIASQFFTCINERLLNSRSTIISTNLSLDTLADLYTERSFSRITSNYIMLKLIGDDIRIKKKLKNREEN | not soluble
